The values that follow come from US20060024786A1, “WASP and N-WASP constructs and methods of expressing such constructs” (Cytokinetics, Inc., priority 2004, published 2006).

Test in all cases: cell-based or functional assay
The target in assay [1] is full length human WASP (Myc-WASP-TAP) (human).
Assay [2] concerns the target full length human N-WASP (Myc-N-WASP-TAP) (human).
The target in another assay is Arp2/3 complex (human) (UniProt P61158).

In assay [1], GST_NCK2 had a Barbed ends % of max. (after subtracting baseline) of 50%; a Barbed ends, nM (pyrene-actin polymerization assay) of 2.6 nM; an EC50, nM (activation of actin polymerization) of 12 nM. In assay [2], this substance showed a Barbed ends % of max. (after subtracting baseline) of 78%; a Barbed ends, nM (pyrene-actin polymerization assay) of 3.5 nM; an EC50, nM (activation of actin polymerization) of 7 nM.
In the assay with Arp2/3 complex (human), full length human WASP (Myc-WASP-TAP) displayed an activity relative to 105 WASP (actin polymerization, EC50 comparison) of 20 times; a concentration giving maximal barbed ends (500 nM Cdc42, 2.5 nM Arp2/3, 3.5 uM actin) of 3 nM; a potency relative to the VCA/WA domain (actin polymerization, EC50 comparison) above 70 times.
As to “N_GST_tev_Cdc42 GTP (bacterial GST tagged Cdc42 protein) (enzyme)”, the values for the EC50, nM (activation of actin polymerization) in assay [1] and in assay [2] were 16 nM and 287 nM, respectively.
